Experimental findings from PMC3460868, “Crosstalk of Escherichia coli FadR with Global Regulators in Expression of Fatty Acid Transport Genes” are described below.

What all share (settings): protein: recombinant; tags: His6 (pET28); chain copies: 2; label: DIG-ddUTP 3' (terminal transferase); blunt
One data set deals with CRP (Escherichia coli, UniProt P0ACJ8 1-210). Put plainly: EMSA; cAMP (200 pmol in 20 ul); Roche binding buffer (composition not given), 15 min, room temperature; FadR: 0.1 pmol probe in 10 ul, 0-10 pmol protein, 7% native PAGE; CRP: 0.6 pmol probe in 20 ul (legend; Methods say 0.1 or 0.2 pmol), 5-20 pmol protein, 6.5% native PAGE. (A gel shift assay detects complexes by their altered migration in electrophoresis.)
CRP, sequence (P0ACJ8 whole entry): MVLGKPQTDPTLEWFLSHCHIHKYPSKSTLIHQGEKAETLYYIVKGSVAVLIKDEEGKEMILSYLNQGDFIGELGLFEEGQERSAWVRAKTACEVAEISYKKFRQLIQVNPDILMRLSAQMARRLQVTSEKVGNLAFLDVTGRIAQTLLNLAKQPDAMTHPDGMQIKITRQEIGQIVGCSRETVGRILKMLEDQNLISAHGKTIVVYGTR

Data set [1] concerns the target T1, FadR (Escherichia coli, UniProt P0A8V6 1-239). Kind of data set: EMSA; affinity comparable to the fadL sites; Roche binding buffer (composition not given), 15 min, room temperature; FadR: 0.1 pmol probe in 10 ul, 0-10 pmol protein, 7% native PAGE; CRP: 0.6 pmol probe in 20 ul (legend; Methods say 0.1 or 0.2 pmol), 5-20 pmol protein, 6.5% native PAGE.
Data set [2] addresses T1, FadR. Kind of data set: EMSA; essentially complete binding by 50 nM FadR; Roche binding buffer (composition not given), 15 min, room temperature; FadR: 0.1 pmol probe in 10 ul, 0-10 pmol protein, 7% native PAGE; CRP: 0.6 pmol probe in 20 ul (legend; Methods say 0.1 or 0.2 pmol), 5-20 pmol protein, 6.5% native PAGE.

T1 sequence (P0A8V6 whole entry): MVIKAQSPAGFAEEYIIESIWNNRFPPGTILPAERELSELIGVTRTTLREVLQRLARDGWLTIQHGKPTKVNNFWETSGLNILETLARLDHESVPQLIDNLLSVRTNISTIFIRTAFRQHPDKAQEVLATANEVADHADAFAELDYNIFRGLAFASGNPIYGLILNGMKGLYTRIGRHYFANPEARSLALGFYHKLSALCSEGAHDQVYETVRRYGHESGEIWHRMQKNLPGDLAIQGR

B1: fadH CRP site 2 (probe 2) (dsDNA)
DNA 1: CACCGGGCGTATTCTTTTTGAATCCCATCACAAACCCCGCACTCC
DNA 2: GGAGTGCGGGGTTTGTGATGGGATTCAAAAAGAATACGCCCGGTG
Consider B1, for which the binding result with CRP is given as “binds”.

B2: fadL CRP site 2 (probe 2) (dsDNA)
DNA 1: CCCTACACTTCGCGCTCCTGTTACAGCACGTAACATAGTTTGTATAAAAATAAATC
DNA 2: GATTTATTTTTATACAAACTATGTTACGTGCTGTAACAGGAGCGCGAAGTGTAGGG
Consider B2, for which the binding result with CRP is reported as “no binding”.

B3: fadD FadR site 1 (dsDNA)
DNA 1: GTAATTATCAAGCTGGTATGATGAGTTAATATTATG
DNA 2: CATAATATTAACTCATCATACCAGCTTGATAATTAC
Consider B3, for which the binding result in the data set with FadR [1] is “binds”.

B4: fadL FadR site 1 (dsDNA)
DNA 1: GCAACATTCCAGCTGGTCCGACCTATACTCTCGCC
DNA 2: GGCGAGAGTATAGGTCGGACCAGCTGGAATGTTGC
With B4, the binding result with FadR [2] is recorded as “binds”.

B5: fadD CRP site (dsDNA)
DNA 1: GTAAAGATAAAAATAAATAGTGACGCGCTTCGCAACCTTTTCGTTGGG
DNA 2: CCCAACGAAAAGGTTGCGAAGCGCGTCACTATTTATTTTTATCTTTAC
Take B5: the binding result with CRP was “binds”.

B6: fadL FadR site 2 (dsDNA)
DNA 1: CTCTCGCCACTGGTCTGATTTCTAAGATGTACCTC
DNA 2: GAGGTACATCTTAGAAATCAGACCAGTGGCGAGAG
For the molecule B6, in the data set with FadR [2], the binding result was “binds”.

B7: fadH CRP site 1 (probe 1) (dsDNA)
DNA 1: GTAACCTGGATAAAACGCGACAAGCGTCGCATCCGGCGTTATCACCGG
DNA 2: CCGGTGATAACGCCGGATGCGACGCTTGTCGCGTTTTATCCAGGTTAC
In the case of B7, the binding result with CRP is recorded as “binds”.
